Measured values as given in paper PMC2114023 (The Journal of Cell Biology, 1985).

Biological target: clathrin heavy chain (bovine brain) (bovine, UniProt P49951 1-1675, 3H-labelled by reductive methylation)
Test: co-IP

Chain of clathrin heavy chain (bovine brain) (P49951 whole entry): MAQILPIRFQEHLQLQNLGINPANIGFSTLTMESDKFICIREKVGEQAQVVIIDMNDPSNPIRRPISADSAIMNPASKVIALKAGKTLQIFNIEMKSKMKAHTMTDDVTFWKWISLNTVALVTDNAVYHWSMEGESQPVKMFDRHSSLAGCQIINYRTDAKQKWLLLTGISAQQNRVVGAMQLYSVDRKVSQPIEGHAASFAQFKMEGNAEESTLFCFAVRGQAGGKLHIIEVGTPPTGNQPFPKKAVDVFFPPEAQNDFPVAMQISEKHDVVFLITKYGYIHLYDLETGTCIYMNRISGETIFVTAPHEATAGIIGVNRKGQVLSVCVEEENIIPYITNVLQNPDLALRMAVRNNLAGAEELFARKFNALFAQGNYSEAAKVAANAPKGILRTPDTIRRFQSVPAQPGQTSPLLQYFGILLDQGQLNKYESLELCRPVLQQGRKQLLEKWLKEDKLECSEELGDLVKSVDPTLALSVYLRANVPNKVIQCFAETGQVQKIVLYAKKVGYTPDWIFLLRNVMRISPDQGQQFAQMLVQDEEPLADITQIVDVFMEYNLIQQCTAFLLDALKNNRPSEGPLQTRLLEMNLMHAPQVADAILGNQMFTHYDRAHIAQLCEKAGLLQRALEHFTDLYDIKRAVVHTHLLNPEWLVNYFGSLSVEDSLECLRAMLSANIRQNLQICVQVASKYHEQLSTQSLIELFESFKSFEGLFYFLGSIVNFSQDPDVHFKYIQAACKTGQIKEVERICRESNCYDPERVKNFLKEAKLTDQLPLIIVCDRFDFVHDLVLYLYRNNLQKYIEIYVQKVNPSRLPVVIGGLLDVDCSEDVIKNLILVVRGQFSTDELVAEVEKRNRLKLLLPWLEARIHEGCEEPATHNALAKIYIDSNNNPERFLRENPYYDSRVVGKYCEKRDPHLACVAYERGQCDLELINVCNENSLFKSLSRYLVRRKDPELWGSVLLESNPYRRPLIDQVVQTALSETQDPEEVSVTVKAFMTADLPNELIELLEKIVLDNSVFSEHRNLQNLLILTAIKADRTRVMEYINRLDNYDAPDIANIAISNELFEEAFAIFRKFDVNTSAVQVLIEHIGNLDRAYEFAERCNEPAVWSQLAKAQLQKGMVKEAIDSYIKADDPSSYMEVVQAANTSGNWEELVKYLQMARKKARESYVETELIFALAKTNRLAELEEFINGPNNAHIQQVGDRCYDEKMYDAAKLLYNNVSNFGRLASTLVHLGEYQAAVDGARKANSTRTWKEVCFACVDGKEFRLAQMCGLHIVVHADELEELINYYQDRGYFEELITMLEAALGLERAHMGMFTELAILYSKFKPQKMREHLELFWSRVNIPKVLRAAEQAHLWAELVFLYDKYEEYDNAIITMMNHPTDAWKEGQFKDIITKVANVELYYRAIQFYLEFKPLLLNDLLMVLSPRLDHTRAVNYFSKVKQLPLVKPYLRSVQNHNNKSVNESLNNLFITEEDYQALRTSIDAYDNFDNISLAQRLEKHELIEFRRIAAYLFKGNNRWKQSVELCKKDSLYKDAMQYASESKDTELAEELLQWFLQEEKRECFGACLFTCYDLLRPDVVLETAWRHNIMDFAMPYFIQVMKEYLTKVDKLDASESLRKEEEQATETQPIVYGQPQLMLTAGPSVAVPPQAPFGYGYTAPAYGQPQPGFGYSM

B1: clathrin light chain LCa (bovine brain) (natural protein, UniProt P04973 1-243, looked up)
chain: MAELDPFGVPAGGPALGNGVAGEEDPAAAFLAQQESEIAGIENDEAFAILDGGAPGSQPHGEPPGIPDAVDGVTNGDYYQESNGPTDSYAAISQVDRLQSEPESIRKWREEQTERLEALDANSRKQEAEWKEKAIKELDEWYARQDEQLQKTKANNRVADEAFYKQPFADVIGYVTNINHPCYSLEQAAEEAFVNDIEESSPGTEWERVARLCDFNPKSSKQAKDVSRMRSVLISLKQAPLVH
Does B1 bind?
Result: binds
